Patent publication US20170096493A1 (EISAI R AND D MANAGEMENT, published 2017)

T1: Human Notch4-NRR domain Fc fusion protein (human, UniProt Q99466 1046-1445, limits assumed)
T1 construct: Expressed in a CHO cell line, used from culture supernatant; 1 is named; also called Human Notch4-NRR Fusion Protein; not shown: Fc
T1 sequence: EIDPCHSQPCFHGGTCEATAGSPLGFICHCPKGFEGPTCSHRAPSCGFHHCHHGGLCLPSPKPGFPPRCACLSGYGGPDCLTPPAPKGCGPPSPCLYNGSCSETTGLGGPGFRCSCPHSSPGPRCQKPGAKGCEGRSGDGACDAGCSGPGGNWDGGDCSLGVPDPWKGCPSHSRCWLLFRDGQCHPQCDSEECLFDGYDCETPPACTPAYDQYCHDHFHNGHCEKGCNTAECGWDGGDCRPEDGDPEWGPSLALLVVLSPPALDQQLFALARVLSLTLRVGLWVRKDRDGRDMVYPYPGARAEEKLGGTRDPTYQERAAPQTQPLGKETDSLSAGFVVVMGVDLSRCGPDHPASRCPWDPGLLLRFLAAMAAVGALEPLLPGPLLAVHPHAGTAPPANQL


Columns and labels:
[1] = target: Notch4 with a part of the intracellular domain substituted with GAL4 DNA binding domain, on b.end3 reporter …; assay: cell-based or functional assay
[2] = target: T1, Human Notch4-NRR domain Fc fusion …; assay: SPR (Biacore) as for Table 30; Notch4-NRR-Fc captured, antibody injected; averaged, N=5
Method: (§1) Kinetic analysis of further anti-Notch4 inhibitory humanized antibodies was carried out as follows. Human Notch4-NRR domain Fc fusion proteins were expressed with a CHO cell line. The antigen in the culture supernatant was captured by the anti-human Notch4 antibody fixed on a CM5 sensor chip that recognizes different epitopes of human Notch4. The humanized anti-human Notch4 antibody was then injected onto the sensor chip at various concentrations. The interaction and disassociation constants thereof were calculated according to manufacturer's instructions.

[3] = target: T1, Human Notch4-NRR domain Fc fusion …; assay: SPR (Biacore); Notch4-NRR-Fc captured by another anti-Notch4 antibody on CM5, antibody injected
Method: as §1

[4] = target: T1, Human Notch4-NRR domain Fc fusion …; assay: SPR (Biacore) as for Table 30; Notch4-NRR-Fc captured, antibody injected; averaged, N=3
Method: as §1

[5] = target: T1, Human Notch4-NRR domain Fc fusion …; assay: SPR (Biacore) as for Table 30; Notch4-NRR-Fc captured, antibody injected; averaged, N=2
Method: as §1

[6] = target: T1, Human Notch4-NRR domain Fc fusion …; assay: SPR (Biacore) as for Table 30; Notch4-NRR-Fc captured, antibody injected; averaged, N=1
Method: as §1

Row | % of Control (relative luminescence), Notch4-GAL4 luciferase reporter assay, antibody at 10 µg/ml [1] | Kd [2] [nM] | koff [2] [s⁻¹] | kon [2] [M⁻¹ s⁻¹] | Kd [3] [nM] | koff [3] [s⁻¹] | kon [3] [M⁻¹ s⁻¹] | Kd [6] [nM] | koff [6] [s⁻¹] | kon [6] [M⁻¹ s⁻¹] | Binder | other results
1 | -9.9 % of Control | 0.715 | 0.00127 | 1.81e+06 | 0.556 | 0.00106 | 1.91e+06 | – | – | – | Antibody C (antibody, human IgG2, kappa, Humanized IgG2 (V234A, G237A)/κ; also called HK2L4 (Lys-); HK2L4(Lys-)) heavy: EVQLVESGGGLVQPGGSLRLSCAASGFTFSSYGMSWVRQAPGKGLELVSTINSNGGRTYYPDSVKGRFTISRDNSKNTLYLQMGSLRAEDMAVYYCARDQGFAYWGQGTLVTVSSASTKGPSVFPLAPCSRSTSESTAALGCLVKDYFPEPVTVSWNSGALTSGVHTFPAVLQSSGLYSLSSVVTVPSSNFGTQTYTCNVDHKPSNTKVDKTVERKCCVECPPCPAPPAAAPSVFLFPPKPKDTLMISRTPEVTCVVVDVSHEDPEVQFNWYVDGVEVHNAKTKPREEQFNSTFRVVSVLTVVHQDWLNGKEYKCKVSNKGLPAPIEKTISKTKGQPREPQVYTLPPSREEMTKNQVSLTCLVKGFYPSDIAVEWESNGQPENNYKTTPPMLDSDGSFFLYSKLTVDKSRWQQGNVFSCSVMHEALHNHYTQKSLSLSPG light: not shown | –
2 | – | 0.617 | 0.00113 | 1.93e+06 | – | – | – | – | – | – | HK2L5(Lys-) (antibody, human IgG2, kappa, Humanized IgG2 (V234A, G237A)/κ; also called No. 36) heavy: EVQLVESGGGLVQPGGSLRLSCAASGFTFSSYGMSWVRQAPGKGLELVSTINSNGGRTYYPDSVKGRFTISRDNSKNTLYLQMGSLRAEDMAVYYCARDQGFAYWGQGTLVTVSSASTKGPSVFPLAPCSRSTSESTAALGCLVKDYFPEPVTVSWNSGALTSGVHTFPAVLQSSGLYSLSSVVTVPSSNFGTQTYTCNVDHKPSNTKVDKTVERKCCVECPPCPAPPAAAPSVFLFPPKPKDTLMISRTPEVTCVVVDVSHEDPEVQFNWYVDGVEVHNAKTKPREEQFNSTFRVVSVLTVVHQDWLNGKEYKCKVSNKGLPAPIEKTISKTKGQPREPQVYTLPPSREEMTKNQVSLTCLVKGFYPSDIAVEWESNGQPENNYKTTPPMLDSDGSFFLYSKLTVDKSRWQQGNVFSCSVMHEALHNHYTQKSLSLSPG light: DIQMTQSPSSLSASVGDRVTITCKASQDVGTAVAWYQQKPGKSPKLLIYWASTRHTGVPSRFSGSGSGTDFTLTISSLQPEDVATYFCQQYSSYPWTFGQGTKVEIKRTVAAPSVFIFPPSDEQLKSGTASVVCLLNNFYPREAKVQWKVDNALQSGNSQESVTEQDSKDSTYSLSSTLTLSKADYEKHKVYACEVTHQGLSSPVTKSFNRGEC | –
3 | 5 % of Control | – | – | – | 0.519 | 0.00115 | 2.23e+06 | – | – | – | Antibody E (antibody, human IgG2, kappa, V domains shown, Humanized IgG2 (V234A, G237A)/κ; also called HK2L6 (Lys-); HK2L6(Lys-)) VH: EVQLVESGGGLVQPGGSLRLSCAASGFTFSSYGMSWVRQAPGKGLELVSTINSNGGRTYYPDSVKGRFTISRDNSKNTLYLQMGSLRAEDMAVYYCARDQGFAYWGQGTLVTVSS VL: EIVMTQSPATLSVSPGERATLSCKASQDVGTAVAWYQQKPGQSPRLLIYWASTRHTGIPARFSGSGSGTEFTLTISSLQSEDFAVYFCQQYSSYPWTFGQGTKVEIKR | Kd [4]: 0.62 nM; koff [4]: 0.00115 s⁻¹; kon [4]: 1.87e+06 M⁻¹ s⁻¹
4 | 0.1 % of Control | – | – | – | 0.555 | 0.000889 | 1.62e+06 | – | – | – | Antibody A (antibody, human IgG2, kappa, Humanized IgG2 (V234A, G237A)/κ; also called HK2L3 (Lys-); HK2L3(Lys-)) heavy: EVQLVESGGGLVQPGGSLRLSCAASGFTFSSYGMSWVRQAPGKGLELVSTINSNGGRTYYPDSVKGRFTISRDNSKNTLYLQMGSLRAEDMAVYYCARDQGFAYWGQGTLVTVSSASTKGPSVFPLAPCSRSTSESTAALGCLVKDYFPEPVTVSWNSGALTSGVHTFPAVLQSSGLYSLSSVVTVPSSNFGTQTYTCNVDHKPSNTKVDKTVERKCCVECPPCPAPPAAAPSVFLFPPKPKDTLMISRTPEVTCVVVDVSHEDPEVQFNWYVDGVEVHNAKTKPREEQFNSTFRVVSVLTVVHQDWLNGKEYKCKVSNKGLPAPIEKTISKTKGQPREPQVYTLPPSREEMTKNQVSLTCLVKGFYPSDIAVEWESNGQPENNYKTTPPMLDSDGSFFLYSKLTVDKSRWQQGNVFSCSVMHEALHNHYTQKSLSLSPG light: not shown | Kd [5]: 0.395 nM; koff [5]: 0.00124 s⁻¹; kon [5]: 5.05e+06 M⁻¹ s⁻¹
5 | – | 0.83 | 0.00162 | 2.43e+06 | – | – | – | – | – | – | HA2L4(Lys-) (antibody, human IgG2, kappa, Humanized IgG2 (V234A, G237A)/κ; also called No. 32) heavy: EVQLVESGGGLVQPGGSLRLSCAASGFTFSSYGMSWVRQAPGKGLELVSTINSNGGRTYYANSVKGRFTISRDNSKNTLYLQMGSLRAEDMAVYYCARDQGFAYWGQGTLVTVSSASTKGPSVFPLAPCSRSTSESTAALGCLVKDYFPEPVTVSWNSGALTSGVHTFPAVLQSSGLYSLSSVVTVPSSNFGTQTYTCNVDHKPSNTKVDKTVERKCCVECPPCPAPPAAAPSVFLFPPKPKDTLMISRTPEVTCVVVDVSHEDPEVQFNWYVDGVEVHNAKTKPREEQFNSTFRVVSVLTVVHQDWLNGKEYKCKVSNKGLPAPIEKTISKTKGQPREPQVYTLPPSREEMTKNQVSLTCLVKGFYPSDIAVEWESNGQPENNYKTTPPMLDSDGSFFLYSKLTVDKSRWQQGNVFSCSVMHEALHNHYTQKSLSLSPG light: not shown | –
6 | 17 % of Control | – | – | – | 0.982 | 0.00136 | 1.55e+06 | – | – | – | Antibody F (antibody, human IgG2, kappa, Humanized IgG2 (V234A, G237A)/κ; also called HA2L3 (Lys-); HA2L3(Lys-)) heavy: EVQLVESGGGLVQPGGSLRLSCAASGFTFSSYGMSWVRQAPGKGLELVSTINSNGGRTYYANSVKGRFTISRDNSKNTLYLQMGSLRAEDMAVYYCARDQGFAYWGQGTLVTVSSASTKGPSVFPLAPCSRSTSESTAALGCLVKDYFPEPVTVSWNSGALTSGVHTFPAVLQSSGLYSLSSVVTVPSSNFGTQTYTCNVDHKPSNTKVDKTVERKCCVECPPCPAPPAAAPSVFLFPPKPKDTLMISRTPEVTCVVVDVSHEDPEVQFNWYVDGVEVHNAKTKPREEQFNSTFRVVSVLTVVHQDWLNGKEYKCKVSNKGLPAPIEKTISKTKGQPREPQVYTLPPSREEMTKNQVSLTCLVKGFYPSDIAVEWESNGQPENNYKTTPPMLDSDGSFFLYSKLTVDKSRWQQGNVFSCSVMHEALHNHYTQKSLSLSPG light: not shown | Kd [5]: 0.434 nM; koff [5]: 0.000894 s⁻¹; kon [5]: 3.5e+06 M⁻¹ s⁻¹
7 | – | – | – | – | – | – | – | 14.7 | 0.524 | 3.57e+07 | HA1L3 (antibody, human IgG2, kappa, V domains shown, Humanized IgG2 (V234A, G237A)/κ; also called No. 23) VH: EVQLVESGGGLVQPGGSLRLSCAASGFTFSSYGMSWVRQAPGKGLEYVSTINSNGGRTYYANSVKGRFTISRDNSKNTLYLQMGSLRAEDMAVYYCARDQGFAYWGQGTLVTVSS VL: EIVMTQSPATLSVSPGERATLSCKASQDVGTAVAWYQQKPGQAPRLLIYWASTRHTGIPARFSGSGSGTEFTLTISSLQSEDFAVYYCQQYSSYPWTFGQGTKVEIKR | –
8 | – | – | – | – | – | – | – | 453 | 0.0279 | 61500 | HA1L1 (antibody, human IgG2, kappa, V domains shown, Humanized IgG2 (V234A, G237A)/κ; also called No. 21) VH: EVQLVESGGGLVQPGGSLRLSCAASGFTFSSYGMSWVRQAPGKGLEYVSTINSNGGRTYYANSVKGRFTISRDNSKNTLYLQMGSLRAEDMAVYYCARDQGFAYWGQGTLVTVSS VL: DIQMTQSPSSLSASVGDRVTITCKASQDVGTAVAWYQQKPGKVPKLLIYWASTRHTGVPSRFSGSGSGTDFTLTISSLQPEDVATYYCQQYSSYPWTFGQGTKVEIKR | –
9 | – | – | – | – | – | – | – | 9.54 | 0.113 | 1.18e+07 | HA1L4 (antibody, human IgG2, kappa, V domains shown, Humanized IgG2 (V234A, G237A)/κ; also called No. 24) VH: EVQLVESGGGLVQPGGSLRLSCAASGFTFSSYGMSWVRQAPGKGLEYVSTINSNGGRTYYANSVKGRFTISRDNSKNTLYLQMGSLRAEDMAVYYCARDQGFAYWGQGTLVTVSS VL: EIVMTQSPATLSVSPGERATLSCKASQDVGTAVAWYQQKPGQAPRLLIYWASTRHTGIPARFSGSGSGTEFTLTISSLQSEDFAVYFCQQYSSYPWTFGQGTKVEIKR | –
